Measured values from PMC8287938, “Identification and structural analysis of the Schizosaccharomyces pombe SMN complex” (Nucleic Acids Research, 2021).
Where “and” joins values, the source holds several entries; their conditions need not be identical. Equal entries are not always repeated. Blank lines part the entries; values can stand above or below the molecule they belong to.

Legend:
[1] = molecular target: SpSMN/SpG2^ΔN80/SpG6/SpG7/SpG8^Δ35–58 complex (S. pombe) (UniProt Q09808); assay: SEC-SAXS; full length SpSMN complexes at various concentrations; molecular weight against the standard SpSMNΔ36–119S130D/SpG2ΔN80
[2] = molecular target: the molecule itself; assay: SEC; gel filtration chromatography of MBP-YG-domain 252–284 fusion proteins
[3] = molecular target: the molecule itself; assay: SEC-SAXS; low concentrations (peak concentrations 5.8–16 μM); Superdex 200 10/300, 150 mM NaCl, 20 mM HEPES, 1 mM DTT, pH 7.5, 20°C
[4] = molecular target: the molecule itself; assay: SEC-SAXS; full length SpSMN complexes at various concentrations; molecular weight against the standard SpSMNΔ36–119S130D/SpG2ΔN80
[5] = molecular target: T1, HsG7^46–131 (human, UniProt Q9H840 46-131); assay: crystal structure; HsG6 1–92/HsG7 46–131/HsG8 190–230, 1.52 Å, PDB 7BBL; details: both partners purified
T1 construct: human Gemin7, residues 46-131 (residues 47-131 in the model); also called human Gemin7 46-131; His6-HsG7^46–131; source: E. coli BL21(DE3), co-expressed with HsG6 1-92, purified
T1 sequence (looked up): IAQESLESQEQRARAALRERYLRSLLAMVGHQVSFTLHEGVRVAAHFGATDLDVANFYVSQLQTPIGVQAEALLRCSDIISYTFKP

stoichiometry N [1]: 4
Molecule: SpSMN/SpG2^ΔN80/SpG6/SpG7/SpG8^Δ35–58 complex (from UniProt Q09808 1-152; P0CU08 81-235)

B1: MBP-Hs-YG-domain^252–284 (wt) (domain or fragment, human, UniProt Q16637 252-284, looked up)
chain: DSLDDADALGSMLISWYMSGYHTGYYMGFRQNQ
notes: human SMN, YG-domain, residues 252-284; vector pETM-41; also called MBP fusion of human YG-box^252–284; wild-type construct; source: E. coli BL21(DE3), purified; immobilized on Amylose resin for the pull-down
binding result [2]: binds

B2: MBP-Hs-YG-domain^252–284 H273R (domain or fragment, human, UniProt Q16637 252-284, looked up)
chain: DSLDDADALGSMLISWYMSGYRTGYYMGFRQNQ
notes: human SMN, YG-domain, residues 252-284, SMA-causing missense mutation H273R; source: E. coli BL21(DE3), purified; immobilized on Amylose resin for the pull-down
binding result [2]: binds

B3: SpSMN^Δ36–119S130D/SpG2^ΔN80 complex (complex, S. pombe)
chain 1: MDQSQKEVWDDSELRNAFETALHEFKKYHSIEAKGYDETYKKLIMDWYYAGYYTGLAEGLAKSEQRKD
chain 2: RKLEIEAGKKSFDPFLRYLLNIIDKEGERLEQYMESSSLDASILPKNLQQWRVYIEHKAPCWAILAVVDLATVLEILESLSSWLEKDAIDLQSQWIFCFCYKLPELLNGEDISTLRSVLKSLRSTHTSFPALQMSASALQAVLVYRYGQKDLFQT
notes: Gemin2 of Schizosaccharomyces pombe (SpG2) lacking the N-terminus (ΔN80); also called S130D mutant; source: E. coli BL21(DE3), co-expressed (SpSMNΔ36–119S130D/His6-SpG2ΔN80), purified (Ni-NTA, TEV, dialysis); not shown: His6, N-terminal, cleaved
stoichiometry N [3]: 2

B4: SpSMN^Δ36–119A134E/SpG2^ΔN80 complex (complex, S. pombe)
chain 1: MDQSQKEVWDDSELRNAFETALHEFKKYHSIEAKGYDETYKKLIMSWYYEGYYTGLAEGLAKSEQRKD
chain 2: RKLEIEAGKKSFDPFLRYLLNIIDKEGERLEQYMESSSLDASILPKNLQQWRVYIEHKAPCWAILAVVDLATVLEILESLSSWLEKDAIDLQSQWIFCFCYKLPELLNGEDISTLRSVLKSLRSTHTSFPALQMSASALQAVLVYRYGQKDLFQT
notes: Gemin2 of Schizosaccharomyces pombe (SpG2) lacking the N-terminus (ΔN80); also called A134E mutant; source: E. coli BL21(DE3), co-expressed (SpSMNΔ36–119A134E/His6-SpG2ΔN80), purified (Ni-NTA, TEV, dialysis); not shown: His6, N-terminal, cleaved
stoichiometry N [3]: 2

B5: SpSMN/SpG2^ΔN80 complex (complex, S. pombe)
chain 1: MDQSQKEVWDDSELRNAFETALHEFKKYHSIEAKGGVSDPDSRLDGEKLISAARTEESISKLEEGEQMINQQTETTLEGDTHIQQFADNKGLSDEKPETRAAETHQEFMEVPPPIRGLTYDETYKKLIMSWYYAGYYTGLAEGLAKSEQRKD
chain 2: RKLEIEAGKKSFDPFLRYLLNIIDKEGERLEQYMESSSLDASILPKNLQQWRVYIEHKAPCWAILAVVDLATVLEILESLSSWLEKDAIDLQSQWIFCFCYKLPELLNGEDISTLRSVLKSLRSTHTSFPALQMSASALQAVLVYRYGQKDLFQT
notes: SMN of Schizosaccharomyces pombe (SpSMN); Gemin2 of Schizosaccharomyces pombe (SpG2) lacking the N-terminus (ΔN80); source: E. coli BL21(DE3), co-expressed (SpSMN/His6-SpG2ΔN80), purified (Ni-NTA, TEV, dialysis); not shown: His6, N-terminal, cleaved
stoichiometry N [4]: 6 and 8

binding result [5]: binds
B6: HsG8^190–230 (domain or fragment, human, UniProt Q9NWZ8 190-230, looked up)
chain: TERPGERRQAEMKRLYGDSAAKIQAMEAAVQLSFDKHCDRK
notes: human Gemin8, residues 190-230 (also printed as 191-230; residues 191-227 in the model); also called HsG8^191–230; human Gemin8 C-terminus; source: E. coli BL21(DE3), purified (Glutathione Sepharose, PreScission); not shown: His6, N-terminal, cleaved; GST, N-terminal, cleaved
